T1: EsCas13d, nuclease-dead (Eubacterium siraeum, UniProt B0MS50, R295A;H300A;R849A;H854A)
T1 sequence: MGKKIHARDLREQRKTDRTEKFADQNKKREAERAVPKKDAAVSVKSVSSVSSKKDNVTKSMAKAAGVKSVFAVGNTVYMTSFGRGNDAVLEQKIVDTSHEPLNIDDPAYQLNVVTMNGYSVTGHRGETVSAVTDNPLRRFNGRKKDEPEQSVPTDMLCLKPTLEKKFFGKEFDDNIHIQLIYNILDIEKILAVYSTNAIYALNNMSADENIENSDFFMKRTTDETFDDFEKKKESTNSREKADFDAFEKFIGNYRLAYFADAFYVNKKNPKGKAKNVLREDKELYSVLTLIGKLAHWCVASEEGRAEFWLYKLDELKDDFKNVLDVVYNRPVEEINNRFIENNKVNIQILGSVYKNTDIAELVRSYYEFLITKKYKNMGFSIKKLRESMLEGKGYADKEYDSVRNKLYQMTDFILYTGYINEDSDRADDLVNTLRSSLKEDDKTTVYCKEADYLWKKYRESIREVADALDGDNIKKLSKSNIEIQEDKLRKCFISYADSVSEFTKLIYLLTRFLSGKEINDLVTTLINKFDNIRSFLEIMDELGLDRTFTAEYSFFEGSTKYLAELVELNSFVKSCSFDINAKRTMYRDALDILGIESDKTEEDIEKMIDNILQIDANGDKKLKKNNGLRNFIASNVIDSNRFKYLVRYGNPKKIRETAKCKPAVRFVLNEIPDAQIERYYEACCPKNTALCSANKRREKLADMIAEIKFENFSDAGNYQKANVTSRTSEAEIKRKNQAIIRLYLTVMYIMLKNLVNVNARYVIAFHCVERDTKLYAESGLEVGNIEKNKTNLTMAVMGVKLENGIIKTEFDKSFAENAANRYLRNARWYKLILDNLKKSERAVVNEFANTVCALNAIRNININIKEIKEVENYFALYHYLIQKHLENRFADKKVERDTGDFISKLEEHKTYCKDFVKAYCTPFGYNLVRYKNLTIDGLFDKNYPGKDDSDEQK

B1: target 1 insU 3' of 12,insU 3' of 9 (mixed)
RNA 1: CACCCGUGCAAAAAUGCAGGGGUCUAAAACUGAGCGGAUAACCUCUCUAUGG
RNA 2: GGGAAUGGAUCCACAUCUACGAAUUCGUACCAUAGAGAGGUUUAUUCCGCUCACCGAGAUCGGAAGAGCACACGU
B2: target 1 insG 3' of 11,insG 3' of 2 (mixed)
RNA 1: CACCCGUGCAAAAAUGCAGGGGUCUAAAACUGAGCGGAUAACCUCUCUAUGG
RNA 2: GGGAAUGGAUCCACAUCUACGAAUUCGUACCAUAGAGAGGUGUAUCCGCUCGACCGAGAUCGGAAGAGCACACGU
B3: target 1 insU 3' of 13,insA 3' of 7 (mixed)
RNA 1: CACCCGUGCAAAAAUGCAGGGGUCUAAAACUGAGCGGAUAACCUCUCUAUGG
RNA 2: GGGAAUGGAUCCACAUCUACGAAUUCGUACCAUAGAGAGUGUUAUCACGCUCACCGAGAUCGGAAGAGCACACGU
B4: target 1 C2A,G5C (mixed)
RNA 1: CACCCGUGCAAAAAUGCAGGGGUCUAAAACUGAGCGGAUAACCUCUCUAUGG
RNA 2: GGGAAUGGAUCCACAUCUACGAAUUCGUACCAUAGAGAGGUUAUCCCCUAACCGAGAUCGGAAGAGCACACGU
B5: target 1 insC 3' of 22,insA 3' of 19 (mixed)
RNA 1: CACCCGUGCAAAAAUGCAGGGGUCUAAAACUGAGCGGAUAACCUCUCUAUGG
RNA 2: GGGAAUGGAUCCACAUCUACGAAUUCGUACCCAUAAGAGAGGUUAUCCGCUCACCGAGAUCGGAAGAGCACACGU
B6: target 1 complement block 4-10 (mixed)
RNA 1: CACCCGUGCAAAAAUGCAGGGGUCUAAAACUGAGCGGAUAACCUCUCUAUGG
RNA 2: GGGAAUGGAUCCACAUCUACGAAUUCGUACCAUAGAGAGGUAUAGGCGUCACCGAGAUCGGAAGAGCACACGU
B7: target 1 U3G,U10A (mixed)
RNA 1: CACCCGUGCAAAAAUGCAGGGGUCUAAAACUGAGCGGAUAACCUCUCUAUGG
RNA 2: GGGAAUGGAUCCACAUCUACGAAUUCGUACCAUAGAGAGGUAAUCCGCGCACCGAGAUCGGAAGAGCACACGU
B8: target 1 U3G,A14C (mixed)
RNA 1: CACCCGUGCAAAAAUGCAGGGGUCUAAAACUGAGCGGAUAACCUCUCUAUGG
RNA 2: GGGAAUGGAUCCACAUCUACGAAUUCGUACCAUAGAGCGGUUAUCCGCGCACCGAGAUCGGAAGAGCACACGU
B9: target 1 U10C,G12U (mixed)
RNA 1: CACCCGUGCAAAAAUGCAGGGGUCUAAAACUGAGCGGAUAACCUCUCUAUGG
RNA 2: GGGAAUGGAUCCACAUCUACGAAUUCGUACCAUAGAGAGUUCAUCCGCUCACCGAGAUCGGAAGAGCACACGU
B10: target 1 del3,del14 (mixed)
RNA 1: CACCCGUGCAAAAAUGCAGGGGUCUAAAACUGAGCGGAUAACCUCUCUAUGG
RNA 2: GGGAAUGGAUCCACAUCUACGAAUUCGUACCAUAGAGGGUUAUCCGCCACCGAGAUCGGAAGAGCACACGU
B11: target 1 insG 3' of 18,insG 3' of 9 (mixed)
RNA 1: CACCCGUGCAAAAAUGCAGGGGUCUAAAACUGAGCGGAUAACCUCUCUAUGG
RNA 2: GGGAAUGGAUCCACAUCUACGAAUUCGUACCAUAGGAGAGGUUAGUCCGCUCACCGAGAUCGGAAGAGCACACGU
B12: target 1 C2A,A18G (mixed)
RNA 1: CACCCGUGCAAAAAUGCAGGGGUCUAAAACUGAGCGGAUAACCUCUCUAUGG
RNA 2: GGGAAUGGAUCCACAUCUACGAAUUCGUACCAUGGAGAGGUUAUCCGCUAACCGAGAUCGGAAGAGCACACGU
B13: target 1 U3G,A16G (mixed)
RNA 1: CACCCGUGCAAAAAUGCAGGGGUCUAAAACUGAGCGGAUAACCUCUCUAUGG
RNA 2: GGGAAUGGAUCCACAUCUACGAAUUCGUACCAUAGGGAGGUUAUCCGCGCACCGAGAUCGGAAGAGCACACGU
B14: target 1 insG 3' of 11,insA 3' of 6 (mixed)
RNA 1: CACCCGUGCAAAAAUGCAGGGGUCUAAAACUGAGCGGAUAACCUCUCUAUGG
RNA 2: GGGAAUGGAUCCACAUCUACGAAUUCGUACCAUAGAGAGGUGUAUCCAGCUCACCGAGAUCGGAAGAGCACACGU
B15: target 1 C6U,U11G (mixed)
RNA 1: CACCCGUGCAAAAAUGCAGGGGUCUAAAACUGAGCGGAUAACCUCUCUAUGG
RNA 2: GGGAAUGGAUCCACAUCUACGAAUUCGUACCAUAGAGAGGGUAUCUGCUCACCGAGAUCGGAAGAGCACACGU
B16: target 1 insG 3' of 21,insU 3' of 18 (mixed)
RNA 1: CACCCGUGCAAAAAUGCAGGGGUCUAAAACUGAGCGGAUAACCUCUCUAUGG
RNA 2: GGGAAUGGAUCCACAUCUACGAAUUCGUACCGAUAUGAGAGGUUAUCCGCUCACCGAGAUCGGAAGAGCACACGU
B17: target 1 insC 3' of 14,insG 3' of 11 (mixed)
RNA 1: CACCCGUGCAAAAAUGCAGGGGUCUAAAACUGAGCGGAUAACCUCUCUAUGG
RNA 2: GGGAAUGGAUCCACAUCUACGAAUUCGUACCAUAGAGACGGUGUAUCCGCUCACCGAGAUCGGAAGAGCACACGU
B18: target 1 C6A,C7U (mixed)
RNA 1: CACCCGUGCAAAAAUGCAGGGGUCUAAAACUGAGCGGAUAACCUCUCUAUGG
RNA 2: GGGAAUGGAUCCACAUCUACGAAUUCGUACCAUAGAGAGGUUAUUAGCUCACCGAGAUCGGAAGAGCACACGU
B19: target 1 insU 3' of 20,insG 3' of 6 (mixed)
RNA 1: CACCCGUGCAAAAAUGCAGGGGUCUAAAACUGAGCGGAUAACCUCUCUAUGG
RNA 2: GGGAAUGGAUCCACAUCUACGAAUUCGUACCAUUAGAGAGGUUAUCCGGCUCACCGAGAUCGGAAGAGCACACGU
B20: target 1 insG 3' of 11 (mixed)
RNA 1: CACCCGUGCAAAAAUGCAGGGGUCUAAAACUGAGCGGAUAACCUCUCUAUGG
RNA 2: GGGAAUGGAUCCACAUCUACGAAUUCGUACCAUAGAGAGGUGUAUCCGCUCACCGAGAUCGGAAGAGCACACGU
B21: target 1 G5U,A9U (mixed)
RNA 1: CACCCGUGCAAAAAUGCAGGGGUCUAAAACUGAGCGGAUAACCUCUCUAUGG
RNA 2: GGGAAUGGAUCCACAUCUACGAAUUCGUACCAUAGAGAGGUUUUCCUCUCACCGAGAUCGGAAGAGCACACGU
B22: target 1 G12A,A20U (mixed)
RNA 1: CACCCGUGCAAAAAUGCAGGGGUCUAAAACUGAGCGGAUAACCUCUCUAUGG
RNA 2: GGGAAUGGAUCCACAUCUACGAAUUCGUACCUUAGAGAGAUUAUCCGCUCACCGAGAUCGGAAGAGCACACGU
B23: target 1 insU 3' of 21,insG 3' of 10 (mixed)
RNA 1: CACCCGUGCAAAAAUGCAGGGGUCUAAAACUGAGCGGAUAACCUCUCUAUGG
RNA 2: GGGAAUGGAUCCACAUCUACGAAUUCGUACCUAUAGAGAGGUUGAUCCGCUCACCGAGAUCGGAAGAGCACACGU
B24: target 1 C6U,C22U (mixed)
RNA 1: CACCCGUGCAAAAAUGCAGGGGUCUAAAACUGAGCGGAUAACCUCUCUAUGG
RNA 2: GGGAAUGGAUCCACAUCUACGAAUUCGUAUCAUAGAGAGGUUAUCUGCUCACCGAGAUCGGAAGAGCACACGU
B25: target 1 U3C,A9C (mixed)
RNA 1: CACCCGUGCAAAAAUGCAGGGGUCUAAAACUGAGCGGAUAACCUCUCUAUGG
RNA 2: GGGAAUGGAUCCACAUCUACGAAUUCGUACCAUAGAGAGGUUCUCCGCCCACCGAGAUCGGAAGAGCACACGU
B26: target 1 insC 3' of 20,insG 3' of 2 (mixed)
RNA 1: CACCCGUGCAAAAAUGCAGGGGUCUAAAACUGAGCGGAUAACCUCUCUAUGG
RNA 2: GGGAAUGGAUCCACAUCUACGAAUUCGUACCACUAGAGAGGUUAUCCGCUCGACCGAGAUCGGAAGAGCACACGU
B27: target 1 insU 3' of 14,insG 3' of 11 (mixed)
RNA 1: CACCCGUGCAAAAAUGCAGGGGUCUAAAACUGAGCGGAUAACCUCUCUAUGG
RNA 2: GGGAAUGGAUCCACAUCUACGAAUUCGUACCAUAGAGAUGGUGUAUCCGCUCACCGAGAUCGGAAGAGCACACGU
B28: target 1 G15A,A16C (mixed)
RNA 1: CACCCGUGCAAAAAUGCAGGGGUCUAAAACUGAGCGGAUAACCUCUCUAUGG
RNA 2: GGGAAUGGAUCCACAUCUACGAAUUCGUACCAUAGCAAGGUUAUCCGCUCACCGAGAUCGGAAGAGCACACGU

The binders below were run against T1, EsCas13d, nuclease-dead (assay: crRNA (strand 1, pre-loaded); Mg2+; 40 mM Tris-HCl pH 7.5, 150 mM NaCl, 6 mM MgCl2, 1 mM DTT, 0.1% Tween-20, 0.2 mg/ml BSA; 25 C; 10 min per concentration, then washed). Conditions: tags: His6-TwinStrep-SUMO cleaved; N-terminal SNAP kept (SNAP-Surface 488); label: 3' end held by stalled T7 RNA polymerase.

With B1 as the binder, how does the Kd read?
The Kd was 29 ± 5 nM.

For B2, which Kd is on record?
Its Kd is 57 ± 8 nM.

With B3 as the binder, how does the Kd read?
The Kd was 13.6 ± 0.6 nM.

How did the Kd turn out when B4 was run?
Its Kd is 6.52 ± 0.32 nM.

B5 was tested. Which Kd did it give?
The Kd was 30 ± 9 nM.

For B6, which Kd is on record?
Its Kd is 13.4 ± 0.4 nM.

B7 was tested. Which Kd did it give?
The Kd was 17.2 ± 1.3 nM.

Which Kd does the source give for B8 here?
The Kd was 28.6 ± 1.8 nM.

How did the Kd turn out when B9 was run?
The Kd was 24 ± 4 nM.

With B10 as the binder, how does the Kd read?
Its Kd is 44 ± 4 nM.

Which Kd does the source give for B11 here?
Its Kd is 49 ± 8 nM.

For B12, which Kd is on record?
The Kd was 64 ± 18 nM.

B13 was tested. Which Kd did it give?
Its Kd is 27.1 ± 1.5 nM.

Which Kd does the source give for B14 here?
Its Kd is 94 ± 29 nM.

Which Kd does the source give for B15 here?
Its Kd is 16.2 ± 0.9 nM.

How did the Kd turn out when B16 was run?
Its Kd is 77 ± 22 nM.

Which Kd does the source give for B17 here?
Its Kd is 57 ± 13 nM.

For B18, which Kd is on record?
The Kd was 7.1 ± 0.5 nM.

Which Kd does the source give for B19 here?
The Kd was 16.3 ± 0.9 nM.

Which Kd does the source give for B20 here?
Its Kd is 33.3 ± 3.1 nM.

With B21 as the binder, how does the Kd read?
Its Kd is 97 ± 20 nM.

B22 was tested. Which Kd did it give?
Its Kd is 15.7 ± 0.9 nM.

For B23, which Kd is on record?
Its Kd is 82 ± 23 nM.

How did the Kd turn out when B24 was run?
Its Kd is 14.8 ± 1.9 nM.

For B25, which Kd is on record?
Its Kd is 28.4 ± 3 nM.

B26 was tested. Which Kd did it give?
Its Kd is 11.6 ± 0.5 nM.

With B27 as the binder, how does the Kd read?
Its Kd is 80 ± 40 nM.

B28 was tested. Which Kd did it give?
The Kd was 30.5 ± 2.7 nM.

From paper PMC10786891, “Massively parallel profiling of RNA-targeting CRISPR-Cas13d”
